The text below walks through data of patent US20200299370A1 (UNIVERSITY OF FLORIDA RESEARCH FOUNDATION, published 2020).

In assay [1] the target is T1, full-length S404A 2N/4R human tau phosphorylated in vitro with GSK3β (human, UniProt P10636 2-758, phosphorylated in vitro with GSK3β; sites not stated).
T1 construct: Recombinant, E. coli BL21; also called S404A tau; 5404A
Nature of the assay: immunoblot, recombinant tau phosphorylated in vitro. The procedure: (§1) Tau proteins (0.2 mg/ml) were phosphorylated with either glycogen synthase kinase 3β (GSK3β; 2.5 U/μl; New England Biolabs, Ipswich, Mass.) or p42 mitogen-activated protein kinase (MAPK; 0.5 U/μl; New England Biolabs, Ipswich, Mass.) in 50 mM Tris, pH 7.5, 10 mM MgCl₂, 0.1 mM EDTA, 2 mM DTT, 0.1% Brij 35, ATP 200 μM for 2 hours at 30° C. followed by heat inactivation at 95° C. for 5 minutes. Samples were diluted in SDS-sample buffer and 100 ng of each tau protein was loaded on a separate lane on SDS-polyacrylamide gels for immunoblot analysis.
(§2) To determine the specificity of these monoclonal antibodies, full-length WT, S396A and 5404A 2N/4R human tau were in vitro phosphorylated with known tau kinases (p42 MAPK or GSK3β) and used these tau proteins for immunoblotting analysis (FIG. 1).

For assay [2], the target named is T2, full-length S396A 2N/4R human tau phosphorylated in vitro with GSK3β (human, UniProt P10636 2-758, phosphorylated in vitro with GSK3β; sites not stated).
T2 construct: Recombinant, E. coli BL21; also called S396A tau
The assay is described as above. Here is the method: as §1, §2

In assay [3] the target is T3, T205A 0N/3R human tau phosphorylated in vitro with p42 MAPK or GSK3β (human, UniProt P10636 2-758, phosphorylated in vitro with p42 MAPK or with GSK3β; sites not stated).
T3 construct: Two preparations, one for each kinase; also called phosphorylated T205A tau
Description: immunoblot, recombinant 0N/3R tau phosphorylated in vitro. The procedure: (§3) WT, S199A, 5202A and T205A 0N/3R tau (mutants numbered according to 2N/4R human tau) were incubated with p42 MAPK or GSK3β or without any kinase as described in “Material and Methods”. […] The mobilities of molecular mass markers are shown on the left.
as §1
(§4) To determine the specificity of these monoclonal antibodies, WT, S199A, 5202A and T205A 0N/3R human tau (mutations numbered according to the sequence of 2N/4R human tau) were phosphorylated with p42 MAPK or GSK3β and immunoblotting analysis was performed (FIG. 3).

The target in assay [4] is T4, WT 0N/3R human tau, non-phosphorylated (incubated without any kinase) (human, UniProt P10636 2-758).
T4 construct: Recombinant, E. coli BL21; also called non-phosphorylated tau
Nature of the assay: immunoblot, recombinant 0N/3R tau. The procedure:
as §3, §1, §4

Assay [5] addresses T5, WT 0N/3R human tau phosphorylated in vitro with p42 MAPK or GSK3β (human, UniProt P10636 2-758, phosphorylated in vitro with p42 MAPK or with GSK3β; T205 (2N/4R numbering) phosphorylated by both, other sites not stated).
T5 construct: recombinant, E. coli BL21; also called phosphorylated tau
Nature of the assay: immunoblot, recombinant 0N/3R tau. The procedure: as §3, §1, §4

Assay [6] has as its target T6, phosphopeptide DRSGYSpSPGpSPGpTPGSRSR (p193-211) (human, phosphoserine at residues 7 and 10 and phosphothreonine at 13 (S199, S202, T205 of 2N/4R tau); C residue added at the carboxy-terminus).
T6 construct: Unconjugated synthetic peptide coated on ELISA plates; also called tau peptide p193-211
T6 peptide: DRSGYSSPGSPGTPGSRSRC
Description: ELISA, hybridoma medium on plates coated with the unconjugated immunising peptide.

T3 sequence (P10636 other isoform, or with tags, fused parts or gaps T205A T205A limits assumed): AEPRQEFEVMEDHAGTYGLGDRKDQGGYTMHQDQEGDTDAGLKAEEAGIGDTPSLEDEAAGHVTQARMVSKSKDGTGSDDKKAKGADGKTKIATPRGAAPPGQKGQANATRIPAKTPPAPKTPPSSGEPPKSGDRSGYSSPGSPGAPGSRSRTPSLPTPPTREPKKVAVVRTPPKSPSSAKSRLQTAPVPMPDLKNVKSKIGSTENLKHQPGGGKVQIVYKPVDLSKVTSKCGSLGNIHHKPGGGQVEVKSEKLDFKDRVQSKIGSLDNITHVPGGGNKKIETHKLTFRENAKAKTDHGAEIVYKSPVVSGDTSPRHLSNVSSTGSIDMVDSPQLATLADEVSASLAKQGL
T2 sequence (P10636 other isoform, or with tags, fused parts or gaps S396A S396A limits assumed): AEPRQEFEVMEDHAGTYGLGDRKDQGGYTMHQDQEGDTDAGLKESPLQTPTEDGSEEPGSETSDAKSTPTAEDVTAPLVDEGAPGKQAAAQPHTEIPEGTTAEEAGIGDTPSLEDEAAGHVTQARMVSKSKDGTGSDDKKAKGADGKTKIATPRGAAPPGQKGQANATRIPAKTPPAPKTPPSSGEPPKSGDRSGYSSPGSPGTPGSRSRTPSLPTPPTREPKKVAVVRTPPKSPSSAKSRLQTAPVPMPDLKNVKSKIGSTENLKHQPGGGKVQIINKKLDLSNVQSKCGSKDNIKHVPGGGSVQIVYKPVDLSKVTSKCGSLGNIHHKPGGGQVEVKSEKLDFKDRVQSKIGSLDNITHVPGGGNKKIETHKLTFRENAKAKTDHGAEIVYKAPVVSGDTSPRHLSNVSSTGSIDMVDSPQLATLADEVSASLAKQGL
T1 sequence (P10636 other isoform, or with tags, fused parts or gaps S404A S404A limits assumed): as the sequence (P10636 other isoform, or with tags, fused parts or gaps S396A S396A limits assumed) above, with A395S, S403A counted along it
T5 sequence (P10636 other isoform, or with tags, fused parts or gaps limits assumed): as the sequence (P10636 other isoform, or with tags, fused parts or gaps T205A T205A limits assumed) above, with A146T counted along it
T4 sequence (P10636 other isoform, or with tags, fused parts or gaps limits assumed): as the sequence (P10636 other isoform, or with tags, fused parts or gaps T205A T205A limits assumed) above, with A146T counted along it

B1: PHF15 (antibody, V domains shown)
VH: EVQLVESGGGSVKPGGSLKLSCAASGFTFSSYALSWVRQTPEKRLEWVASITSGGSYTYFPDSVKGRFTISRDNAKNTLYLQMSSLRSEDTAMYYCTRPGNYDGAWCAYWGQGTLVTVSS
VL: DILLTQSPAILSVSPGERDSFSCRASQNIGTSIHWYQQRTNGSPRLLIKYASESISGIPSRFSGSGSGTDFTLSVNSVESEDVADYYCQQTKTWPTTFGAGTKLDLK
As for B1, the binding result in assay [1] and in assay [2] was “no binding” each time.

B2: PHF2 (antibody, V domains shown)
VH: EVQLVESGGGSVKPGGSLKLSCAASGFTFSSYAMSWVRQTPEKRLEWVASITRGGSYTYFPDSVKGRFTISRDNTKDTLYLQMSSLRSEDTAMYYCTRQGNYDGAWCDYWGQGTLVTVSA
VL: DILLTQSPAILSVSPGERVSFSCRASQNIGTSIHWYQQRTNGSPRLLIKYTSESISGIPSRFGGSGSGTDFTLSVNGVESEDVADYYCQQTKTWPTTFGAGTKLELKR
With B2, the binding result in assay [1] and in assay [2] was “no binding” in each case.

B3: 6G12 (antibody, V domains shown)
VH: EVNLEESGGGLVQPGGSMKLSCVASGFTFSDYWMNWVRQSPEKGLEWVAEIRLKSDNFATHYAESVKGRFTISRDDSKSSVYLQTNNLRAEDTGIYYCTLMRGDYGAEFAYWGQGTLAIVSA
VL: DIVMSQSPSSLAVSVGEKVTLTCKSSRSLLYRGNQENFLAWYQQKPGQSPKLLIYWASTRESGVPDRFTGSGSGTDFTLTINSVKAEDLAVYYCQQYYTYPYTFGGGTKLEIKR
As to B3, in assay [3], the binding result was “no binding”.

B4: 10G12 (antibody, V domains shown)
VH: EVKLEESGGGLVQPGGSMKLSCVASGFTFSNYWMNWVRQSPETGLEWVAEIRLKSYNYATHYAESVTGRFTISRDDSKNRVYLQMNNLGPDDTGIYYCTTGGAYHPFDYWGQGTTLTVSS
VL: DIVMSQSPSSLAVSVGEKVTMTCKSSQSLLYRNNQKNYLAWYQQKPGQSPKLLIYWASTRESGVPDRFTGSGSGTDFTLTISSVKAEDLAVYYCQQYYTYPYTFGGGTKLEIKR
notes: also called 10G2
B4: the binding result in assay [3] is recorded as “no binding”.

B5: 7F2 (antibody, V domains shown)
VH: QVQLQQSGAELVQPGGSMKLSCVASGFTFSNYWMNWVRQSPETGLEWVAEIRLKSYNYATHYAESVTGRFTISRDDSKNRVYLQMNNLGPDDTGIYYCTTGGAYHPFDYWGQGTTLTVSS
VL: EIVLTQSIPSLTVSAGERVTINCKSNQNLLWSGNQRYCLVWHQWKPGQTPTPLITWTSDRYSGVPDRFIGGGSVTDFTLTISSVQAEDVALYFCQHHLHIPPWTFGGGTKLEIKR
notes: also called clone 7F2
In the case of B5, the binding result in assay [3] is listed as “no binding”.

B6: 2D1 (antibody, V domains shown)
VH: EVKLVESGGGLVQPGGSLRLSCATSGFTFTDFSMNWVRQPPGKALEWLGCVRDRAEGYTTEYSASVQGRFTISRDNSQSILYLQMNTLRPEDSATYYCARERAFAYWGQGTLVTVSA
VL: DIVMSQSPSSLAVSAGEKVTMSCKSSQSLLYSRNQKNYLAWYQQRPGQSPKLLIYWASSRESGVSDRFTGSGSGTDFTLTISSVKADDLAVYYCQQYYKSPLTFGAGTKLELKR
notes: also called clone 2D1
With B6, the binding result in assay [4], in assay [5] and in assay [6] was “binds” throughout.
